Source: paper PMC10965980

Target: mGluR1 (UniProt P97772)
Assay: anti-Homer1 IP, mGluR1 western blot
Conditions: reference: wild-type Homer1; sites S117

“Homer1 (from UniProt Q9Z2Y3) Homer1 S117A” was tested, and the “binding against the reference” value was “stronger”.
